From patent US8546353B2, “Compounds and combinations” (priority 2010, dated 2013)
“Also recorded” adds a separate entry of the source.

Experiments:
[1] = system: hematopoietic cell populations of mouse peripheral blood; test: Immunophenotypic profiling of peripheral blood by flow cytometry; type: in vivo, C57BL/6J mice; settings: pegfilgrastim 25 μg s.c. −5 days
Method: (§1) Adult (8-10 weeks) female, age-matched C57BL/6J (Jackson stock nr 000664, the Charles River Laboratories) CD45.2 mice were used in the in vivo mobilization experiments. The acclimatization period was always at least 7 days before the experiments. The animals were individually identified by ear and tail numbering and were housed in a Scantainer (Scanbur A/S, Karlslunde, Denmark) in Makrolon III cages. The animal room temperature was 21±2° C. and humidity was between 40-60%. Lightning was artificial, 12 h light and 12 h dark. The mice were provided with irradiated fodder and normal tap water ad libitum. Average weight of all animals in the experiments was 18.8±1.5 g. No formal randomization or grouping was done. Animals were randomly allocated to the study groups. All animals were weighed before the first dosing and in the end of each study.
(§2) Sterile filtered PBS (pH 7.2) served as vehicle in all studies and was injected intravenously in the tail vein in similar volumes (50 or 100 μl) and time-points as the other test items within each study. Recombinant pegylated granulocyte-colony stimulatory factor (G-CSF), pegfilgrastim (Neulasta™, Amgen), with the stock concentration 10 mg/ml, was diluted immediately before the injections in sterile filtered PBS (pH 7.2) to yield a 0.25-0.5 mg/ml dosing solution. The animals obtained 25 μg pegfilgrastim (Neulasta™) subcutaneously at a dose volume of 50 or 100 μl on study day 0. The LMW hyaluronic acid derivatives HA and 6-O-S HA were prepared for injections into sterile filtered PBS in 5-10 mg/ml solutions and injected intravenously in the tail vein in dose volumes of 50 or 100 μl yielding 500 μg doses/mouse.
The LMW hyaluronic acid (HA) derivatives were tested for capability to mobilize hematopoietic stem and progenitor cells to peripheral blood after 500 μg i.v. injections at the following time-points: 4h, 1d, 2d, 3d and 5d post-injections. Repetitive dosing was tested with daily 500 μg i.v. injections and sampling was done either on experimental days 2 (after 3 doses) or 5 (after 6 doses) after the first injection on day 0. Abnormal clinical signs or mortality was not observed with the LMW HA derivatives with 500 μg doses. The LMW HA derivatives were also tested in combination with a single dose of pegfilgrastim (Neulasta™). In combinatorial G-CSF+LMW HA studies, pegfilgrastim was always injected s.c. at experimental day 0 and the LMW HA derivatives were administered i.v. as • a) single doses of 500 μg at experimental day 3, • b) single doses of 500 μg 1 or 4 hours before sampling, or • c) as repetitive doses of 500 μg daily from experimental day 0-5 (in total 6 doses).
Flow cytometric analysis was performed on FACSAria (Becton Dickinson Biosciences) with a 488-nm argon laser for (PE, FITC and PE-Cy7), a 633-nm hene laser for (APC and APC-Cy7). Fluorescense was measured using 530/30-nm (FITC), 585/42-nm (PE), 780/60-nm (PE-Cy7), 660/20-nm (APC) and 780/60 (APC-Cy7) bandpass filters.
Peripheral mouse blood was diluted 1:5 in 0.9% NaCl (Baxter). Fluorescence labels (ebiosciences, except APC-CD45 BD Biosciences): 0.04 μg phycoerythrin (PE)-conjugated CD11c (dendritic cells; clone N418; cat#12-0114), fluorescein isothiocyanate (FITC)-conjugated 0.3 μg TER-119 (erythroid cells; clone TER-119; cat#11-5921), 0.1 allophycocyanin (APC)-conjugated CD314 (natural killer cells; clone CX5; 17-5882), 0.08 μg APC-Cyanine 7 (Cy7)-conjugated CD3e (T cells; clone 17A2; cat#27.0032) and 0.04 μg PE-Cy7 conjugated CD45R (B cells; RA3-6B2; 25-0452) were combined in one tube and 0.08 μg PE-conjugated CD115 (for monocytes and macrophages; clone AFS98; cat#12-1152), 0.2 μg FITC-conjugated-CD41 (megakaryocytes and hematopoietic progenitors; clone MWReg30; cat#11-0411), 0.08 μg APC-conjugated CD45 (leukocytes; clone 30-F11; cat#559864) and 0.03 μg PE-Cy7-conjugated LY-6G (neutrophils; clone RB6-8C5; cat#25-5931) were combined in another tube, incubated for 30 minutes on ice protected from light. […]

[2] = system: red blood cell (RBC) contents in peripheral blood; test: Erythrocyte content in blood, automated blood cell counter Sysmex XT-2000i; type: in vivo, C57BL/6J mice; settings: 25 μg s.c.
Method: as §1
(§3) Sterile filtered PBS (pH 7.2) served as vehicle in all studies and was injected intravenously in the tail vein in similar volumes (50 or 100 μl) and time-points as the other test items within each study. […]
(§4) The leukocyte, erythrocyte and platelet contents were determined for all blood samples by automated blood cell counter Sysmex XT-2000i by diluting the mouse blood 1:4 with 0.9% NaCl.
(§5) Complete blood counts (numbers of white blood cells, mature red blood cells and platelets) of mouse peripheral blood were determined with automated blood cell counter.

[3] = system: hematopoietic progenitor cells (HPCs) in the bone marrow; test: CFU assay on bone marrow mononuclear cells; type: in vivo, C57BL/6J mice; settings: single 25 μg s.c. at day 0, samples at day 5, 1×10^5 mononuclear cells
Method: as §1, with “All animals were weighed before the first dosing and in the end of each study.” left out
Myeloid hematopoietic progenitor cells were further enumerated by the colony forming unit (CFU/CFC) assay. Progenitor cells that are restricted in their lineage potential and that have limited self-renewal capability can be detected in colony-forming cell (CFC) assays using semisolid media such as methylcellulose, agar or collagen. Progenitors that read out in culture assays can either be multipotent, e.g. capable of generating progeny of multiple blood cell types, or restricted to one or two lineages, e.g. erythrocytes, granulocytes, monocyte/macrophages or platelets. […]

[4] = system: SLAM+ cells (CD150+CD48−CD45+) in peripheral blood; test: SLAM immunophenotyping by flow cytometry; type: in vivo, C57BL/6J mice; settings: pegfilgrastim 25 μg s.c. day 0; combination + single 500 μg i.v. one hour before sampling (FIG. 14)
Method: as §1, with “No formal randomization or grouping was done. Animals were randomly allocated to the study groups. All animals were weighed before the first dosing and in the end of each study.” left out
The enrichment of long-term repopulating (LTR) hematopoietic stem cells was detected with representation of SLAM markers. […] CD45+ cells expressing CD150, but not CD48 cell surface markers were determined as a population highly enriched with LTR hematopoietic stem cells.
Although mobilization of HPCs may be of use for short-term repopulation in clinical settings, long-term repopulation and reconstitution of the hematopoietic cell system in a transplant recipient demands the presence of mobilized long-term repopulating hematopoietic stem cells (LTR-HSCs). […] The presence of SLAM (CD150+CD48−CD45+) positive cells in mouse blood was determined by flow cytometry after vehicle, pegfilgrastim or pegfilgrastim +6-O-S LMW HA dosing. […]

spleen = test: Spleen weights after mobilization studies; type: in vivo; settings: 25 μg s.c.
Method: as §1
Sterile filtered PBS (pH 7.2) served as vehicle in all studies and was injected intravenously in the tail vein in similar volumes (50 or 100 μl) and time-points as the other test items within each study. Recombinant pegylated granulocyte-colony stimulatory factor (G-CSF), pegfilgrastim (Neulasta™, Amgen), with the stock concentration 10 mg/ml, was diluted immediately before the injections in sterile filtered PBS (pH 7.2) to yield a 0.25-0.5 mg/ml dosing solution. […]

[5] = system: circulating hematopoietic progenitor cells (HPCs) in peripheral blood; test: Peripheral blood stem cell mobilization, colony forming unit (CFU) assay on peripheral blood mononuclear cells; type: in vivo, C57BL/6J mice
Method: as §1, §2
The LMW hyaluronic acid (HA) derivatives were tested for capability to mobilize hematopoietic stem and progenitor cells to peripheral blood after 500 μg i.v. injections at the following time-points: 4h, 1d, 2d, 3d and 5d post-injections. Repetitive dosing was tested with daily 500 μg i.v. injections and sampling was done either on experimental days 2 (after 3 doses) or 5 (after 6 doses) after the first injection on day 0. Abnormal clinical signs or mortality was not observed with the LMW HA derivatives with 500 μg doses. […]
Mononuclear cells were isolated by carefully overlaying 3 ml Ficoll-Paque® (GE Healthcare) with peripheral blood diluted 1:2 in phosphate buffered saline (PBS)-2 mM EDTA. […] Mononuclear cell yields were counted using a Bürker chamber.
Myeloid hematopoietic progenitor cells were further enumerated by the colony forming unit (CFU/CFC) assay. Progenitor cells that are restricted in their lineage potential and that have limited self-renewal capability can be detected in colony-forming cell (CFC) assays using semisolid media such as methylcellulose, agar or collagen. […]

[6] = system: white blood cell (WBC) contents in peripheral blood; test: Leukocyte content in blood, automated blood cell counter Sysmex XT-2000i; type: in vivo, C57BL/6J mice; settings: single dose (HA derivatives 500 μg i.v.; pegfilgrastim 25 μg s.c.); 5 days (FIG. 2C)
Method: as §1, §3, §4, §5

B1: pegfilgrastim (protein, chains of the INN, looked up)
chain: TPLGPASSLPQSFLLKCLEQVRKIQGDGAALQEKLCATYKLCHPEELVLLGHSLGIPWAPLSSCPSQALQLAGCLSQLHSGLFLYQGLLQALEGISPELGPTLDTLQLDVADFATTIWQQMEELGMAPALQPTQGAMPAFASAFQRRAGGVLVASHLQSFLEVSYRVLRHLAQP
modifications: N-terminal methionine, PEG
[1]; combination + 500 μg i.v. 1 hour before sampling (FIG. 11A), listed as G-CSF
  levels of circulating monocytes, neutrophils and eosinophils (MNEs) as a pool: robust increase; also recorded: dramatically increased
[1]; combination + 500 μg i.v. 1 hour before sampling (FIG. 11B)
  granulocytes within the MNEs: proliferated
[1]; combination + 500 μg i.v. 1 hour before sampling (FIG. 11C)
  levels of monocytes and macrophages as a pool: decreased
[1]; combination + 500 μg i.v. 1 hour before sampling (FIG. 12A)
  levels of CD45+CD115+ progenitors: increased
[1]; combination + 500 μg i.v. 1 hour before sampling (FIG. 12B)
  levels of CD45+CD41+ progenitors: decreased from control levels
[1]; combination + 500 μg i.v. 1 hour before sampling (FIG. 12C)
  levels of Ter-119+ proerythroblasts: decrease
[1]; combination + 500 μg i.v. 1 hour before sampling (FIG. 12D)
  levels of megakaryocytes and platelets: decreased levels of megakaryocytes and platelets
[1]; combination + 500 μg i.v. 1 hour before sampling (FIG. 13A)
  levels of peripheral blood lymphocytes: increased
[1]; combination + 500 μg i.v. 1 hour before sampling (FIG. 13B)
  CD3+ T-cells within the lymphocyte population: increase
[1]; combination + 500 μg i.v. 1 hour before sampling (FIG. 13C)
  NK (CD314+) cell levels: remained unaltered
[1]; combination + 500 μg i.v. 1 hour before sampling (FIG. 13D)
  CD45R+ B-cells within the lymphocyte population: decrease
[2]; 2 days
  numbers of mature RBC 2 days after s.c. injection: elevate the numbers of mature RBC
[2]; 5 days, occasionally seen (FIG. 4C)
  RBC elevation 5 days after s.c. injection: normalize back to control levels
[3]
  number of HPCs in the bone marrow, decrease: over 2 fold
[4]
  levels of circulating SLAM+ cells (CD150+CD48−CD45+): dramatically increased
spleen; 3 days (FIG. 8A left panel)
  spleen swelling 3 days after single s.c. injection: evident
spleen; two days
  spleen swelling two days after s.c. injection: evident
[5]; Neulasta 25 μg s.c. day 0, sampling day 5, combination: 500 μg i.v. 1 hour before sampling (FIG. 10A)
  mean CFU colonies: 18.8 colonies/10^5 mononuclear cells
[5]; single 25 μg s.c.
  time of peak of HPC mobilization after s.c. injection: 5 days
[5]; single 25 μg s.c. at day 0, samples at day 5, CFU, 1×10^5 mononuclear cells
  number of circulating HPCs in mouse peripheral blood, increase over background: 40-50 fold
[5]; single 25 μg s.c. injection (FIG. 9A)
  mobilization of circulating HPCs: robust mobilization of circulating HPCs
[6]
  WBC counts 5 days after single dose: remained high
